Positions count from the first letter of the chain named.
Legend:
Experiment in all cases: EMSA
Details in all cases: EMSA: 40 ng probe in 20 ul of 10 mM Tris-HCl pH 7.4, 50 mM KCl, 5 mM MgCl2, 10% glycerol; room temperature 20 min; 6% PAGE, DNA dye
[1] = test system: T1, RhpR (Pseudomonas savastanoi pv. phaseolicola 1448A), ORF:976030cf
T1 sequence: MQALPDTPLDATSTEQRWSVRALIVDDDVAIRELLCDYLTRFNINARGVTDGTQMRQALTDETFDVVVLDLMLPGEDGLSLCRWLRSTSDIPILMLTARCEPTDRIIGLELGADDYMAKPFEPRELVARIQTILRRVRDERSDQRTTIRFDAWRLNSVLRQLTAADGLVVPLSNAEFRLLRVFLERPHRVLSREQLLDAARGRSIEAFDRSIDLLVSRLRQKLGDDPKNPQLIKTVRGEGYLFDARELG

[2] = test system: T2, RhpR D70A D70A (Pseudomonas savastanoi pv. phaseolicola 1448A), ORF:976030cf
T2 sequence: T1 sequence with D70A

[3] = test system: T3, RhpR D70E D70E (Pseudomonas savastanoi pv. phaseolicola 1448A), ORF:976030cf
T3 sequence: T1 sequence with D70E

Sequence | binding [1] | binding [2] | binding [3]
TTCTCGAGTGAAATATCGACCTGAGGAAATTGCCCCTTTGATAATAGGACTCGCATGTATAATACCGGCCAAAACCGGACCAGCCGCCATTAACTTCTCTTCATGTAACGGCCATATCACCCCCGACTTGAACCGCCTTTTACTGCGTATATTTCGCGACGCTCCAGCACTGGAAACGCCCGGGATCCAA (double strand) [ccmA-ΔIR promoter] | no binding |  | 
TTCTCGAGTGAAATATCGACCTGAGGAAATTGCCCCTTTGATAATAGGACTCGCATGTATAATACCGGCCAAAACCGGACCAGCCGCCATTAACTTCTCTTCATGTAACGGCCATATCACCCCCGACTTGAACCGCCTTTTACTGCGTATGTGTCTGTTTTGGTACATTTCGCGACGCTCCAGCACTGGAAACGCCCGGGATCCAA (double strand) [ccmA promoter] | binds |  | 
TTGGATCCAACACCCTATCCACTGAAGGTCTTGGCGGGCAAAAAACAAGCCGAGGATTATACCCGAGCTATGACCCTCGAGAA (double strand) [rpoD promoter] | binds |  | 
TTGGATCCGACGGACCCTCGTGGGGTGATAGCCCAAGCATCCGCCGTGTGCGAGGTACAACCATTGACCTGGCGCAATGAAGCAGCCTGATAGCAGACCGTTGGTCGAAGACTCTTCGGTCTACGTGTGCAGGGTGGCTGTTCTCGAGAA (double strand) [adhB-ΔIR promoter] | no binding |  | 
TTGGATCCGACGGACCCTCGTGGGTAGCTCGGATGCTTGGGTGATAGCCCAAGCATCCGCCGTGTGCGAGGTACAACCATTGACCTGGCGCAATGAAGCAGCCTGATAGCAGACCGTTGGTCGAAGACTCTTCGGTCTACGTGTGCAGGGTGGCTGTTCTCGAGAA (double strand) [adhB promoter] | binds |  | 
TTGGATCCGGAAACACCAGATGCATGAGCCGACGACGGTCATCCGTAAAAACCATGACCAAAGGTAACAAGTGTGCTGCTGCATTGTTGCAAAGTTCATACCTTTTTGGCAGACCCTTTGCCTGTCAGATGACATCCATGTGACGTGGGGCACTACACGGCTGCCAGACGGGTCAGATCCAGGTGTGTCGCGAGACCGCCAAGGTGAATGAGCAGGGCTCGGCTATGCTTGCTCGCGGCGTTACATATTCTTCCCCCACTGAACAGGTGACAGTCCTCGAGAA (double strand) [PSPPH_2590 promoter] |  | binds more weakly | binds
TTGGATCCGGAAACACCAGATGCATGAGCCGACGACGGTCATCCGTAAAAACCATGACCAAAGTGCATTGTTGCAAAGTTCATACCTTTTTGGCAGACCCTTTGCCTGTCAGATGACATCCATGTGACGTGGGGCACTACACGGCTGCCAGACGGGTCAGATCCAGGTGTGTCGCGAGACCGCCAAGGTGAATGAGCAGGGCTCGGCTATGCTTGCTCGCGGCGTTACATATTCTTCCCCCACTGAACAGGTGACAGTCCTCGAGAA (double strand) [PSPPH_2590-p-ΔIR] |  |  | no binding

Reference: publication PMC6426608
